Test results taken from patent US12329823B2 (The Scripps Research Institute, priority 2021, dated 2025).
Read-outs that look alike come from different tables or passages of the source. Each block holds one compound with its values, some of them ahead of it.

Experiments:
[1] = target: human GLP-1R (Homo sapiens, UniProt P43220); assay: In vitro receptor activation reporter assay (CRE-Luc, HEK293-GLP-1R-CRE cells; receptor-mediated cAMP synthesis); type: cell-based; design: expressed in transfected cells; host or cells: HEK293 (CRE-HEK293, HEK293-GLP-1R-CRE)
[2] = Acute oral glucose tolerance test (OGTT) in wild-type mice, 2 h and 96 h post injection; type: in vivo, mouse; settings: 96 h after administration; 10 nmol/kg s.c.
[3] = target: T1, human GIPR (Homo sapiens, UniProt P48546); assay: In vitro receptor activation reporter assay (CRE-Luc, HEK293-GIPR-CRE cells; receptor-mediated cAMP synthesis); type: cell-based
T1 construct: expressed in transfected cells; host or cells: HEK293 (CRE-HEK293, HEK293-GIPR-CRE)
T1 sequence (P48546 22-466): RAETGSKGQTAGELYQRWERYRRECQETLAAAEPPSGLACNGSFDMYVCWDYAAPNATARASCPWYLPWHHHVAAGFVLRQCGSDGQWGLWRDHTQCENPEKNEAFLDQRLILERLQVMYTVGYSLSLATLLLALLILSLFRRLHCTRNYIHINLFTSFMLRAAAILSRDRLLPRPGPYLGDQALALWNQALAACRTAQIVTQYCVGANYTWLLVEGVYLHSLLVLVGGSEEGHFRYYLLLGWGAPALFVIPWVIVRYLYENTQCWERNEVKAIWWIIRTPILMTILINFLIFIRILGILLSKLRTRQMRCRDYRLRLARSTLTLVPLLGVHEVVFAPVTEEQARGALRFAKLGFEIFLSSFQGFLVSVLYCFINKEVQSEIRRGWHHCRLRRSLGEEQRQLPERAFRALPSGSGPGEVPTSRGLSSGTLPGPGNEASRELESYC

[4] = Pharmacokinetics in CD-1 mouse, I.V. or S.C. 1 mg/kg, plasma concentration by LC-MS;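 also: peptide levels in plasma quantified by LC-MS across multiple sampling times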
[5] = In vivo oral glucose tolerance test (OGTT) 12 h after a single S.C. dose; design: species or system mouse; settings: 10 nmol/kg S.C.; 12 h before glucose
Experimental: Mice were fasted overnight prior to the oral glucose tolerance test (OGTT), and then dosed with peptide. After 12 h, 1 g of glucose solution per kg body weight was administered orally, and mouse tail blood glucose levels were measured before (0 min) and after glucose challenge for 90 minutes (with measurements at 15, 30, 60 and 90 minutes) (FIG. 16). The data were compared using the unpaired Student's t test. Where appropriate, data were compared using repeated measures or one-way analysis of variance, followed by the Student-Newman-Keuls post hoc test. Calculations for […] (mg/dL*min) were also analyzed and graphed in FIG. 16. […]. […].

human GLP-1R, sequence (P43220 24-463): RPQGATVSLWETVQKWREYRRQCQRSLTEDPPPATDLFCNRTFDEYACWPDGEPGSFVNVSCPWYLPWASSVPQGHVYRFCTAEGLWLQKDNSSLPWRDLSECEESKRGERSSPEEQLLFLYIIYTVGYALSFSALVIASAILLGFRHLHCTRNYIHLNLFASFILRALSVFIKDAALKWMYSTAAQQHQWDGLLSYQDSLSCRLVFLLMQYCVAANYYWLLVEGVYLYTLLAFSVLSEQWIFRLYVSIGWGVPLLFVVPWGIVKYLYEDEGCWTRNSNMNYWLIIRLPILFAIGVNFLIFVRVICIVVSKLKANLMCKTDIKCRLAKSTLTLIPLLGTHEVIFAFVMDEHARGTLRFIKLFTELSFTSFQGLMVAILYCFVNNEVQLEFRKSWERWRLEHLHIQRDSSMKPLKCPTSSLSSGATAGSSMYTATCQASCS

EC50 ([1]; Table 7, read-out: EC50 GLP1R): ~13700 nM
Compound: CCCC[C@@H]1NC(=O)[C@H](C)NC(=O)[C@H](C)NC(=O)[C@H](CCC(N)=O)NC(=O)[C@H](CCCCN)NC(=O)[C@H](CC(=O)O)NC(=O)[C@@H](NC(=O)[C@H](Cc2ccc(O)cc2)NC(=O)[C@@H](NC(=O)[C@H](CC(=O)O)NC(=O)[C@H](Cc2ccc(O)cc2)NC(=O)[C@H](CC(=O)O)NC(=O)[C@H](CO)NC(=O)[C@H](Cc2c[nH]cn2)NC(=O)[C@H](Cc2ccccc2)NC(=O)[C@@H](NC(=O)CNC(=O)[C@H](CCC(=O)O)NC(=O)C(C)(C)NC(=O)[C@@H](N)Cc2ccc(O)cc2)[C@@H](C)O)[C@@H](C)CC)CCCCNC(=O)CN(C(=O)CCNC(=O)CCOCCOCCNC(=O)CCOCCOCCNC(=O)CC[C@H](NC(=O)CCCCCCCCCCCCCCCCC(=O)O)C(=O)O)CC(=O)NCCCC[C@@H](C(=O)N[C@@H](Cc2ccccc2)C(=O)N[C@H](C(=O)N[C@@H](C)C(=O)N[C@@H](Cc2c[nH]c3ccccc23)C(=O)N[C@@H](CC(C)C)C(=O)N[C@@H](CC(C)C)C(=O)N[C@@H](C)C(=O)NCC(=O)NCC(=O)N2CCC[C@H]2C(=O)N[C@@H](CO)C(=O)N[C@@H](CO)C(=O)NCC(=O)N[C@@H](C)C(=O)N2CCC[C@H]2C(=O)N2CCC[C@H]2C(=O)N2CCC[C@H]2C(=O)N[C@@H](CO)C(N)=O)C(C)C)NC1=O [ZA-42 - K5, YAibEGT-FHSDY-DIYXD-KQAANle-XFVAW-LLAGG-PSSGA-PPPS-NH2 (where each X is K) (SEQ ID NO: 47)]

Compound: CC[C@H](C)[C@H](NC(=O)[C@H](CO)NC(=O)[C@H](Cc1ccc(O)cc1)NC(=O)[C@H](CC(=O)O)NC(=O)[C@H](CO)NC(=O)[C@@H](NC(=O)[C@H](Cc1ccccc1)NC(=O)[C@@H](NC(=O)CNC(=O)[C@H](CCC(=O)O)NC(=O)C(C)(C)NC(=O)[C@@H](N)Cc1ccc(O)cc1)[C@@H](C)O)[C@@H](C)O)C(=O)N[C@@H](Cc1ccc(O)cc1)C(=O)N[C@H]1CCCCNC(=O)CN(C(=O)CCNC(=O)CCOCCOCCNC(=O)CCOCCOCCNC(=O)CC[C@H](NC(=O)CCCCCCCCCCCCCCCCC(=O)O)C(=O)O)CC(=O)NCCCC[C@@H](C(=O)N[C@@H](Cc2ccccc2)C(=O)N[C@H](C(=O)N[C@@H](CC(N)=O)C(=O)N[C@@H](Cc2c[nH]c3ccccc23)C(=O)N[C@@H](CC(C)C)C(=O)N[C@@H](CC(C)C)C(=O)N[C@@H](C)C(=O)NCC(=O)NCC(=O)N2CCC[C@H]2C(=O)N[C@@H](CO)C(=O)N[C@@H](CO)C(=O)NCC(=O)N[C@@H](C)C(=O)N2CCC[C@H]2C(=O)N2CCC[C@H]2C(=O)N2CCC[C@H]2C(=O)N[C@@H](CO)C(N)=O)C(C)C)NC(=O)C(C)(C)NC(=O)[C@H](C)NC(=O)[C@H](C)NC(=O)[C@H](CCC(N)=O)NC(=O)[C@H](CCCCN)NC(=O)[C@H](CC(=O)O)NC1=O [mCLZ715, YAibEGT-FTSDY-SIYXD-KQAAAib-XFVNW-LLAGG-PSSGA-PPPS-NH2 (where each X is K) (SEQ ID NO: 40)]
fasted glucose levels [2]: significantly reduce fasted glucose levels
glucose handling (OGTT) versus vehicle [2]: more significant improvements in handling glucose

Compound: CC[C@H](C)[C@H](NC(=O)[C@H](CC(C)C)NC(=O)[C@H](Cc1c[nH]c2ccccc12)NC(=O)[C@H](CC(N)=O)NC(=O)[C@@H](NC(=O)[C@H](Cc1ccccc1)NC(=O)[C@@H]1CSCC(=O)NCCN(C(=O)CCC(=O)NCCOCCOCCC(=O)NCCOCCOCCC(=O)NCCCC[C@H](NC(=O)CCCCCCCCCCCCCCCCCCC(=O)O)C(=O)O)CCNC(=O)CSC[C@H](NC(=O)[C@H](Cc2ccc(O)cc2)NC(=O)[C@@H](NC(=O)[C@H](CO)NC(=O)[C@H](Cc2ccc(O)cc2)NC(=O)[C@H](CC(=O)O)NC(=O)[C@H](CO)NC(=O)[C@@H](NC(=O)[C@H](Cc2ccccc2)NC(=O)[C@@H](NC(=O)CNC(=O)[C@H](CCC(=O)O)NC(=O)C(C)(C)NC(=O)[C@@H](N)Cc2ccc(O)cc2)[C@@H](C)O)[C@@H](C)O)[C@@H](C)CC)C(=O)N[C@@H](CC(=O)O)C(=O)N[C@@H](CCCCN)C(=O)N[C@@H](CCC(N)=O)C(=O)N[C@@H](C)C(=O)N[C@@H](C)C(=O)NC(C)(C)C(=O)N1)C(C)C)C(=O)N[C@@H](C)C(=O)NCC(=O)NCC(=O)N1CCC[C@H]1C(=O)N[C@@H](CO)C(=O)N[C@@H](CO)C(=O)NCC(=O)N[C@@H](C)C(=O)N1CCC[C@H]1C(=O)N1CCC[C@H]1C(=O)N1CCC[C@H]1C(=O)N[C@@H](CO)C(N)=O [mCMV266, YAibEGT-FTSDY-SIYXD-KQAAAib-XFVNW-LIAGG-PSSGA-PPPS-NH2 (where each X is C) (SEQ ID NO: 52)]
EC50 ([3]; EC50 GIPR 02/19, unnumbered table, run 02/19): 0.08 nM
EC50 ([3]; EC50 GIPR 03/25, unnumbered table, run 03/25): 0.06 nM
EC50 ([3]; EC50 GIPR 03/26, unnumbered table, run 03/26): 0.06 nM
EC50 ([3]; EC50 GIPR, Table 8): 0.07 nM
EC50 ([3]; unnumbered table, average of runs, read-out: EC50 GIPR average): 0.07 nM
bioavailability ([4]; CD-1, mouse, in vivo, sc, 1 mg/kg): 63%
Cl ([4]; Table 14, SC 1 mg/kg): 4.02 mL/h/kg
Vd ([4]; Table 14, SC 1 mg/kg): 0.063 L/kg
AUC(0-inf) ([4]; mouse, in vivo, iv, 1 mg/kg): 397 µg·h/mL
Cmax ([4]; mouse, in vivo, iv, 1 mg/kg): 30400 ng/mL
MRT last ([4]; mouse, in vivo, iv, 1 mg/kg): 18.6 h
Tmax ([4]; mouse, in vivo, iv, 1 mg/kg): 0.5 h
Vd ([4]; mouse, in vivo, iv, 1 mg/kg): 0.043 L/kg
clearance ([4]; mouse, in vivo, iv, 1 mg/kg): 2.58 mL/h/kg
half-life ([4]; mouse, in vivo, iv, 1 mg/kg): 11.5 h
AUC(0-t) ([4]; mouse, in vivo, iv, 1 mg/kg, AUC0-24, Table 14, IV 1 mg/kg): 269 µg·h/mL
AUC(0-t) ([4]; mouse, in vivo, iv, 1 mg/kg, AUCLAST, Table 14, IV 1 mg/kg): 390 µg·h/mL
AUC(0-inf) ([4]; mouse, in vivo, sc, 1 mg/kg): 252 µg·h/mL
Cmax ([4]; mouse, in vivo, sc, 1 mg/kg): 6610 ng/mL
MRT last ([4]; mouse, in vivo, sc, 1 mg/kg): 24.3 h
Tmax ([4]; mouse, in vivo, sc, 1 mg/kg): 12.7 h
half-life ([4]; mouse, in vivo, sc, 1 mg/kg): 10.7 h
AUC(0-t) ([4]; mouse, in vivo, sc, 1 mg/kg, AUC0-24, Table 14, SC 1 mg/kg): 135 µg·h/mL
AUC(0-t) ([4]; mouse, in vivo, sc, 1 mg/kg, AUCLAST, Table 14, SC 1 mg/kg): 247 µg·h/mL
EC50 ([1]; EC50 GLP1R 02/19, unnumbered table, run 02/19): 0.03 nM
EC50 ([1]; EC50 GLP1R 3/25, unnumbered table, run 3/25): 0.05 nM
EC50 ([1]; EC50 GLP1R 03/26, unnumbered table, run 03/26): 0.06 nM
EC50 ([1]; EC50 GLP1R, Table 8): 0.05 nM
EC50 ([1]; unnumbered table, average of runs, read-out: EC50 GLP1R average): 0.05 nM

Compound: Semaglutide [reference compound]
glucose handling (OGTT) versus vehicle [2]: did not exhibit any improvement over the vehicle
effects on glucose tolerance [5]: indistinguishable effects on glucose tolerance
